From patent publication US9988424 (DUKE UNIVERSITY, dated 2018)
Changes are numbered by the printed parent chain. Where two headings read alike, the source gives them in different places.

Experiments:
Test in all cases: ELISA, OD405 at 10 ug/ml
[1] = target: T1, A.9004SS V1/V2 tags
T1 V1V2 tags construct: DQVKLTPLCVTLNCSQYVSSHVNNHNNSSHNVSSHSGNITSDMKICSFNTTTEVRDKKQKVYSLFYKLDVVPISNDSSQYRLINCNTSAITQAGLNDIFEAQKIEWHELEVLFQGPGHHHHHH

[2] = target: B.con gp140CF
[3] = target: T2, B.62357 gp140C
T2 construct: also called B.62357 140C

[4] = target: B.9021 gp140C (HIV-1)
[5] = target: T3, gp70 C.1086 V1/V2 (HIV-1 V1V2 on murine leukemia virus gp70)
T3 construct: also called C.gp70 1086C V1V2; C.1086gp70V1V2
T3 chain: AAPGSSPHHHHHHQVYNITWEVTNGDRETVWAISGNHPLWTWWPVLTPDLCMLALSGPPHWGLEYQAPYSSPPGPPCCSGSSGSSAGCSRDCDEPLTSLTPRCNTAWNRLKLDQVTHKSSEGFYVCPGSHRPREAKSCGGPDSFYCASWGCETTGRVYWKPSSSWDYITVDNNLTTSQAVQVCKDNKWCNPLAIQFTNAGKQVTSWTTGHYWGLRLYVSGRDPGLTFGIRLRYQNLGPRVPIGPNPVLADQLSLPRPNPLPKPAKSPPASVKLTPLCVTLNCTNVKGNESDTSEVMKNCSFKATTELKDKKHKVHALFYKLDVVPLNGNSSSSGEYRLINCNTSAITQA

[6] = target: B.040 gp140C
[7] = target: AE.con gp140CF
[8] = target: T4, B.HXB/BAL gp140CFI (HIV-1, UniProt P04578 33-680)
T4 construct: also called B.HxB/Ba gp140 CFI

[9] = target: T5, SIV CPZ US-1 gp140CF (SIVcpz)
T5 construct: also called US-1 SIVCPZ gp140CF
T5 chain: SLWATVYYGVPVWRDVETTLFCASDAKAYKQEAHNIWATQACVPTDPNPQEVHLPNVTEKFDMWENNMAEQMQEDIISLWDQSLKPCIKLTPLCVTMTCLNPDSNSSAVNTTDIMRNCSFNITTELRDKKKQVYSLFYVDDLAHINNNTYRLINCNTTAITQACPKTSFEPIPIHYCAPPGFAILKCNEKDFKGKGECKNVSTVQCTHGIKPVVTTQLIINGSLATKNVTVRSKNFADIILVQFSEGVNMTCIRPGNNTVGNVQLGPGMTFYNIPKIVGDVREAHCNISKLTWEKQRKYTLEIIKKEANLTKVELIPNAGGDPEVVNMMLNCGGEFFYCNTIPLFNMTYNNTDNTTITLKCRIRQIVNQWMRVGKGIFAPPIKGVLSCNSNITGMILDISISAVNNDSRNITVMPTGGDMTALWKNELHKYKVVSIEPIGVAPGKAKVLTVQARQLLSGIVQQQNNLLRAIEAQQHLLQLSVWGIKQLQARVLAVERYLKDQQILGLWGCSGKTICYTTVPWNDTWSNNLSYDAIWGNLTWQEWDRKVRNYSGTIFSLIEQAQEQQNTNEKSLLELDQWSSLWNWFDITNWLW

[10] = target: Con 6 gp120
[11] = target: G.con gp140CF
[12] = target: T6, C.1086 gp140
T6 construct: also called C.1086gp140C

[13] = target: T7, AE.97CNG2XF gp140CF (HIV-1)
T7 construct: also called E.97CNGX2F gp140CF

[14] = target: T8, gp70 B.CaseA2 V1/V2 (HIV-1 V1V2 on murine leukemia virus gp70)
T8 construct: also called B.gp70CaseA2 V1/V2; gp70 B.CaseAV1V2
T8 chain: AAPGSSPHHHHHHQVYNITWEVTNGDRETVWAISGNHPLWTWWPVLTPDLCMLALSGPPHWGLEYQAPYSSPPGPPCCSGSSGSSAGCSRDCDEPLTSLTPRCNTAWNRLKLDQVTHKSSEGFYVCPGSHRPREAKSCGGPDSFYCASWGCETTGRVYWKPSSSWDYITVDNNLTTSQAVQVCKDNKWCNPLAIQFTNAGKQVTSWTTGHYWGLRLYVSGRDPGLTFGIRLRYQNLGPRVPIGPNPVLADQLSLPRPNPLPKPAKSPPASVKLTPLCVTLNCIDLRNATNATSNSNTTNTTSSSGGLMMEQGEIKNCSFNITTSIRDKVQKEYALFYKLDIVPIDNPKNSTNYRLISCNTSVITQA

[15] = target: C.CAP206 gp140CF.12 (HIV-1)
[16] = target: T1, A.9004SS V1/V2 tags
[17] = target: B.con gp140CF; remark: listed apart in the source
[18] = target: T2, B.62357 gp140C; remark: listed apart in the source
[19] = target: T3, gp70 C.1086 V1/V2
[20] = target: B.040 gp140C; remark: listed apart in the source
[21] = target: AE.con gp140CF; remark: listed apart in the source
[22] = target: T4, B.HXB/BAL gp140CFI; remark: listed apart in the source
[23] = target: T5, SIV CPZ US-1 gp140CF
[24] = target: Con 6 gp120; remark: listed apart in the source
[25] = target: G.con gp140CF; remark: listed apart in the source
[26] = target: T6, C.1086 gp140; remark: listed apart in the source
[27] = target: T7, AE.97CNG2XF gp140CF; remark: listed apart in the source
[28] = target: T8, gp70 B.CaseA2 V1/V2
[29] = target: C.CAP206 gp140CF.12 (HIV-1); remark: listed apart in the source

Measured: binding result

B1: CH01_UA1 (antibody, V domains shown)
VH: EVQLVESGGGVVRPGGSLRLSCAASGFTFDDYGMSWVRQAPGKGLEWVSGINWNGGSTGYADSVKGRFTISRDNAKNSLYLQMNSLRAEDTALYYCARGTDYTIDDQGIRYQGSGTFWYFDLWGRGTLVTVSS
VL: not shown
no binding (tested: 10 ug/ml): [1] | [2] | [3] | [4] | [5] | [6] | [7] | [8] | [9] | [10] | [11] | [12] | [13] | [14] | [15]

B2: CH01_UA2 (antibody, V domains shown)
VH: B1 VH with R110L
VL: not shown
no binding (tested: 10 ug/ml): [16] | [17] | [18] | [19] | [20] | [21] | [22] | [23] | [24] | [25] | [26] | [27] | [28] | [29]
